Assay [1] has as its target T1, human Y2 receptor (Homo sapiens, UniProt P49146).
T1 construct: expressed in transfected cells; membrane fraction
T1 sequence (P49146 1-381): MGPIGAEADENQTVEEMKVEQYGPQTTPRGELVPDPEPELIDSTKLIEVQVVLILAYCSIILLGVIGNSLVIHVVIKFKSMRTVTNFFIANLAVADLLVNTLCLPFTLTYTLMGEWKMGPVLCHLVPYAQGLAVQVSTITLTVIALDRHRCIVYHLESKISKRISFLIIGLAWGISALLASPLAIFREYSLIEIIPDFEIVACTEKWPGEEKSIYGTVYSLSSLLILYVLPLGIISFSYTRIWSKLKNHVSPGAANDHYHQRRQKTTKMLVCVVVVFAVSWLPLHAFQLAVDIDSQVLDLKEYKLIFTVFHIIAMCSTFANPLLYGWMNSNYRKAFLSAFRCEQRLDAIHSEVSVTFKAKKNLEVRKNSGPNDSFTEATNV
Put plainly: Receptor Binding Assay (RBA) for Human Y2, [125I]-PYY displacement on hY2R/CHO membrane fraction. Conditions: IC50 of test compound/IC50 of PYY(3-36) (PYY(3-36) taken as 1). Summed up:
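Read-out is [125I]-PYY displacement from membranes of CHO/dhfr− cells stably transfected with human Y2R. Membranes were obtained by disrupting cells in a buffer of 10 mM NaHCO3, 5 mM EDTA and protease inhibitors.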

Another assay relates to male C57EL/6J mice. The experiment in a line: 3-Days Continuous Subcutaneous Administration Test-1 (food intake suppressing activity). Type of assay: in vivo, mouse. To be noted: 0.03 mg/kg/day, subcutaneous Alzet pump, food consumption over 3 days; relative to food intake suppression rate for PYY(3-36) (1 mg/kg/day) taken as 100%. The protocol:
(4) Test Method: 3-Days Continuous Subcutaneous Administration Test-1
The food intake suppressing activity of the compound of the present invention was examined by the method described below.
The test compound was dissolved in 50% DMSO so that sustained release would occur at 0.03 mg/kg/day, and the solution was filled in the Alzet Pump (Alzet model: 1003D, sustained release rate: 1 μL/hr, capacity: 100 μL). After the filling, the pump was placed in a 2 mL Eppendorf tube containing 330 μL of physiological saline, and incubated at 37° C. for 2 hours or more. Thereafter, this pump was subcutaneously embedded in the back of each mouse by the method described below. After weighing, each male […] mice at 12-13 weeks of age (25° C., allowed to take food and water ad libitum; 12-hour bright-12-hour dark cycle, lighting turned on at 08:00) was anesthetized with diethyl ether; the skin in the upper back thereof was incised, and the above-mentioned pump was embedded subcutaneously. Thereafter, several drops of penicillin solution (100000 units/mL) were added to the incised part, and the incision was sutured using Michel's surgical needle. This mouse was returned to the rearing cage (reared alone), and given previously weighed food; 3 days later, the amount of remaining food was measured. Food consumption was calculated by subtracting the amount of remaining food after 3 days from the weight of the food given on the day of pump embedding. The food intake suppressing activity of each test compound was expressed as a food intake suppression rate (%) relative to the food intake suppression rate for PYY(3-36) (1 mg/kg/day) taken as 100%.

The target in assay [2] is T1, human Y2 receptor. The experiment in a line: Human Y2 Receptor G Protein Binding Assay (GBA), [35S]GTPγS. The assay is classed as biochemical. Conditions: EC50 of test compound/EC50 of PYY(3-36) (PYY3-36 taken as 1), hY2R/CHO membrane fraction. The method in brief:
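Agonism measured as [35S]GTPγS binding, read by GF/C filtration and scintillation counting after 120 min at room temperature, using human Y2 membranes at 1 μg protein/mL in pH 7.4 Tris/MgCl2/NaCl/GDP buffer. Compound serially diluted 100 μM–1 nM; EC50 normalized to PYY(3-36) (ratio = compound/PYY).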

Non-standard residues stand in square brackets, D forms with d. *: point of attachment. (5-carboxypentyl)carbamoyl = O=C(O)CCCCCNC(=O)*; (2-amino-2-oxoethyl)carbamoyl = NC(=O)CNC(=O)*; (3-Carboxypropyl)carbamoyl = O=C(O)CCCNC(=O)*; (3-carboxypropyl)carbamoyl = O=C(O)CCCNC(=O)*; (2-Carboxyethyl)carbamoyl = O=C(O)CCNC(=O)*; (2-carboxyethyl)carbamoyl = O=C(O)CCNC(=O)*; tBuAla = CC(C)(C)C[C@H](N)C(=O)O; 4Pal = N[C@@H](Cc1ccncc1)C(=O)O; dHyp = O=C(O)[C@H]1C[C@H](O)CN1; Cha = N[C@@H](CC1CCCCC1)C(=O)O; Isonicotinoyl = O=C(c1ccncc1)*; Iva = CC[C@](C)(N)C(=O)O; Aib = CC(C)(N)C(=O)O

For the substance “4-Pyridinecarbonyl-[D-Hyp24, Iva25, Pya(4)26, Cha27,36, Leu(Me)28, Lys30, Aib31]-PYY(23-36) (Isonicotinoyl-S[dHyp][Iva][4Pal][Cha][tBuAla]NK[Aib]TRQR[Cha]-NH2; SMILES CC[C@](C)(NC(=O)[C@H]1C[C@H](O)CN1C(=O)[C@H](CO)NC(=O)c1ccncc1)C(=O)N[C@@H](Cc1ccncc1)C(=O)N[C@@H](CC1CCCCC1)C(=O)N[C@@H](CC(C)(C)C)C(=O)N[C@@H](CC(N)=O)C(=O)N[C@@H](CCCCN)C(=O)NC(C)(C)C(=O)N[C@H](C(=O)N[C@@H](CCCNC(=N)N)C(=O)N[C@@H](CCC(N)=O)C(=O)N[C@@H](CCCNC(=N)N)C(=O)N[C@@H](CC1CCCCC1)C(N)=O)[C@@H](C)O) [compound No. 333]”, the “RBA IC50 Ratio” value with human Y2 receptor [1] is 0.93. Further, in the assay on male C57EL/6J mice, the “food intake suppression rate (%)” value came to 28%. Further, the “GBA EC50 Ratio” value with human Y2 receptor [2] was 1.6.

For the substance “4-Pyridinecarbonyl-[D-Pro24, Iva25, Pya(4)26, Cha27,36, Aib28,31, Lys30]-PYY(23-36) (Isonicotinoyl-S[dP][Iva][4Pal][Cha][Aib]NK[Aib]TRQR[Cha]-NH2; SMILES CC[C@](C)(NC(=O)[C@H]1CCCN1C(=O)[C@H](CO)NC(=O)c1ccncc1)C(=O)N[C@@H](Cc1ccncc1)C(=O)N[C@@H](CC1CCCCC1)C(=O)NC(C)(C)C(=O)N[C@@H](CC(N)=O)C(=O)N[C@@H](CCCCN)C(=O)NC(C)(C)C(=O)N[C@H](C(=O)N[C@@H](CCCNC(=N)N)C(=O)N[C@@H](CCC(N)=O)C(=O)N[C@@H](CCCNC(=N)N)C(=O)N[C@@H](CC1CCCCC1)C(N)=O)[C@@H](C)O) [compound No. 301]”, the “RBA IC50 Ratio” value in the assay with human Y2 receptor [1] stood at 1.0. Also, in the assay on male C57EL/6J mice, the “food intake suppression rate (%)” value is listed as 35%. Also, in the assay with human Y2 receptor [2], the “GBA EC50 Ratio” value came to 1.1.

Turning to “(2-Carboxyethyl)carbamoyl-[D-Pro24, Iva25, Pya(4)26, Cha27,36, Aib28,31, Lys30]-PYY(23-36) ({(2-carboxyethyl)carbamoyl}-S[dP][Iva][4Pal][Cha][Aib]NK[Aib]TRQR[Cha]-NH2; SMILES CC[C@](C)(NC(=O)[C@H]1CCCN1C(=O)[C@H](CO)NC(=O)NCCC(=O)O)C(=O)N[C@@H](Cc1ccncc1)C(=O)N[C@@H](CC1CCCCC1)C(=O)NC(C)(C)C(=O)N[C@@H](CC(N)=O)C(=O)N[C@@H](CCCCN)C(=O)NC(C)(C)C(=O)N[C@H](C(=O)N[C@@H](CCCNC(=N)N)C(=O)N[C@@H](CCC(N)=O)C(=O)N[C@@H](CCCNC(=N)N)C(=O)N[C@@H](CC1CCCCC1)C(N)=O)[C@@H](C)O) [compound No. 341]”, the “RBA IC50 Ratio” value with human Y2 receptor [1] is 3.2. Besides, the “food intake suppression rate (%)” value in the assay on male C57EL/6J mice is on record as 35%. Besides, the “GBA EC50 Ratio” value with human Y2 receptor [2] worked out at 2.4.

Take “(2-Carboxyethyl)carbamoyl-[D-Pro24, Pya(4)26, Cha27,36, Aib28,31, Lys30]-PYY(23-36) ({(2-Carboxyethyl)carbamoyl}-S[dP]R[4Pal][Cha][Aib]NK[Aib]TRQR[Cha]-NH2; SMILES C[C@@H](O)[C@H](NC(=O)C(C)(C)NC(=O)[C@H](CCCCN)NC(=O)[C@H](CC(N)=O)NC(=O)C(C)(C)NC(=O)[C@H](CC1CCCCC1)NC(=O)[C@H](Cc1ccncc1)NC(=O)[C@H](CCCNC(=N)N)NC(=O)[C@H]1CCCN1C(=O)[C@H](CO)NC(=O)NCCC(=O)O)C(=O)N[C@@H](CCCNC(=N)N)C(=O)N[C@@H](CCC(N)=O)C(=O)N[C@@H](CCCNC(=N)N)C(=O)N[C@@H](CC1CCCCC1)C(N)=O) [compound No. 326]”: in the assay with human Y2 receptor [1], the “RBA IC50 Ratio” value is 1.3. In addition, the “food intake suppression rate (%)” value in the assay with male C57EL/6J mice came to 57%. Moreover, in the assay with human Y2 receptor [2], the “GBA EC50 Ratio” value is on record as 0.94.

Turning to “(2-amino-2-oxoethyl)carbamoyl-[D-Pro24, Pya(4)26, Cha27,36, Aib28,31, Lys30]-PYY(23-36) ({(2-amino-2-oxoethyl)carbamoyl}-S[dP]R[4Pal][Cha][Aib]NK[Aib]TRQR[Cha]-NH2; SMILES C[C@@H](O)[C@H](NC(=O)C(C)(C)NC(=O)[C@H](CCCCN)NC(=O)[C@H](CC(N)=O)NC(=O)C(C)(C)NC(=O)[C@H](CC1CCCCC1)NC(=O)[C@H](Cc1ccncc1)NC(=O)[C@H](CCCNC(=N)N)NC(=O)[C@H]1CCCN1C(=O)[C@H](CO)NC(=O)NCC(N)=O)C(=O)N[C@@H](CCCNC(=N)N)C(=O)N[C@@H](CCC(N)=O)C(=O)N[C@@H](CCCNC(=N)N)C(=O)N[C@@H](CC1CCCCC1)C(N)=O) [compound No. 292]”, the “RBA IC50 Ratio” value with human Y2 receptor [1] came out at 1.2. Further, the “food intake suppression rate (%)” value in the assay on male C57EL/6J mice is reported as 36%. Also, the “GBA EC50 Ratio” value in the assay with human Y2 receptor [2] came to 0.74.

On to “(3-Carboxypropyl)carbamoyl-[D-Hyp24, Iva25, Pya(4)26, Cha27,36, Leu(Me)28, Lys30, Aib31]-PYY(23-36) ({(3-Carboxypropyl)carbamoyl}-S[dHyp][Iva][4Pal][Cha][tBuAla]NK[Aib]TRQR[Cha]-NH2; ends and bridges not checked) [compound No. 349]”, for which the “RBA IC50 Ratio” value with human Y2 receptor [1] is on record as 0.57. Moreover, in the assay on male C57EL/6J mice, the “food intake suppression rate (%)” value is on record as 52%. In addition, the “GBA EC50 Ratio” value in the assay with human Y2 receptor [2] was determined as 1.7.

Regarding “(3-Carboxypropyl)carbamoyl-[D-Pro24, Iva25, Pya(4)26, Cha27,36, Aib28,31, Lys30]-PYY(23-36) ({(3-Carboxypropyl)carbamoyl}-S[dP][Iva][4Pal][Cha][Aib]NK[Aib]TRQR[Cha]-NH2; SMILES CC[C@](C)(NC(=O)[C@H]1CCCN1C(=O)[C@H](CO)NC(=O)NCCCC(=O)O)C(=O)N[C@@H](Cc1ccncc1)C(=O)N[C@@H](CC1CCCCC1)C(=O)NC(C)(C)C(=O)N[C@@H](CC(N)=O)C(=O)N[C@@H](CCCCN)C(=O)NC(C)(C)C(=O)N[C@H](C(=O)N[C@@H](CCCNC(=N)N)C(=O)N[C@@H](CCC(N)=O)C(=O)N[C@@H](CCCNC(=N)N)C(=O)N[C@@H](CC1CCCCC1)C(N)=O)[C@@H](C)O) [compound No. 328]”, the “RBA IC50 Ratio” value in the assay with human Y2 receptor [1] worked out at 1.6. The “food intake suppression rate (%)” value in the assay with male C57EL/6J mice was found to be 75%. The “GBA EC50 Ratio” value in the assay with human Y2 receptor [2] amounted to 1.9.

For “(3-carboxypropyl)carbamoyl-[D-Pro24, Pya(4)26, Cha27,36, Aib28,31, Lys30]-PYY(23-36) ({(3-carboxypropyl)carbamoyl}-S[dP]R[4Pal][Cha][Aib]NK[Aib]TRQR[Cha]-NH2; SMILES C[C@@H](O)[C@H](NC(=O)C(C)(C)NC(=O)[C@H](CCCCN)NC(=O)[C@H](CC(N)=O)NC(=O)C(C)(C)NC(=O)[C@H](CC1CCCCC1)NC(=O)[C@H](Cc1ccncc1)NC(=O)[C@H](CCCNC(=N)N)NC(=O)[C@H]1CCCN1C(=O)[C@H](CO)NC(=O)NCCCC(=O)O)C(=O)N[C@@H](CCCNC(=N)N)C(=O)N[C@@H](CCC(N)=O)C(=O)N[C@@H](CCCNC(=N)N)C(=O)N[C@@H](CC1CCCCC1)C(N)=O) [compound No. 293]”, the “RBA IC50 Ratio” value with human Y2 receptor [1] is 1.2. In the assay with male C57EL/6J mice, the “food intake suppression rate (%)” value was 51%. Also, in the assay with human Y2 receptor [2], the “GBA EC50 Ratio” value was determined as 0.97.

Consider “(5-carboxypentyl)carbamoyl-[D-Pro24, Pya(4)26, Cha27,36, Aib28,31, Lys30]-PYY(23-36) ({(5-carboxypentyl)carbamoyl}-S[dP]R[4Pal][Cha][Aib]NK[Aib]TRQR[Cha]-NH2; SMILES C[C@@H](O)[C@H](NC(=O)C(C)(C)NC(=O)[C@H](CCCCN)NC(=O)[C@H](CC(N)=O)NC(=O)C(C)(C)NC(=O)[C@H](CC1CCCCC1)NC(=O)[C@H](Cc1ccncc1)NC(=O)[C@H](CCCNC(=N)N)NC(=O)[C@H]1CCCN1C(=O)[C@H](CO)NC(=O)NCCCCCC(=O)O)C(=O)N[C@@H](CCCNC(=N)N)C(=O)N[C@@H](CCC(N)=O)C(=O)N[C@@H](CCCNC(=N)N)C(=O)N[C@@H](CC1CCCCC1)C(N)=O) [compound No. 294]”, for which the “RBA IC50 Ratio” value with human Y2 receptor [1] is on record as 1.2. Further, the “food intake suppression rate (%)” value in the assay on male C57EL/6J mice is 45%. For the same substance, the “GBA EC50 Ratio” value with human Y2 receptor [2] is recorded as 1.5.

These data come from patent US9260500B2, “Peptide and use thereof” (Takeda Pharmaceutical Company Limited, priority 2009, dated 2016).
